Laboratory results reported in the supplement of paper PMC9170038.

system: MS2 coat protein; assay: apparent KD of MS2 coat protein; higher = weaker reporter binding; settings: Eterna round: R107; input ligand: theophylline 2 mM
Method: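 RNA-MaP round R107: designed RNA switches with theophylline, tryptophan, arginine or FMN aptamers are transcribed on-chip within common flanks. They are titrated with SNAP-549-labelled MS2 coat protein in RNA-MaP buffer (100 mM Tris pH 7.5, 80 mM KCl, 4 mM MgCl2), without ligand or with the indicated ligand. Median apparent KD per design.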

Sequence	apparent KD of MS2 coat protein
GUGUACAUGAGGAUCACCCAUGUCGAGUUACGAGGACCGGUACGGCCGCCACUCGGCGGCUCGACACGGAUAGCGAUGCGUUGCU [#18 Exclusion Tryptophan A]	44.1 nM
AAUAAUAAGGCGGCCGCCACUAAACAUGAGGAUCACCCAUGUCUCGAGCGCUUGCAUUUGGGAAGUAGGACCGGGCCAAUAAUAA [Exclusion - Tryptophan B (Freestyle 4)]	22.6 nM
ACAUGUUGGUGGUAUCUACGAAGGCGGAAACGAGGACCGGUACGGCCGCCACUCGGCGACAUGAGGAUCACCCAUGUGGUUAAAA [Exclusion - Tryptophan A (Freestyle 5)]	254 nM
GAUUCGCAGUCGGCCGCCACUAACAUGAGCUGCUAGUUAUUAUCACAUGAGGAUCACCCAUGUCUUAGGACCGGGACAACCUGUU [theeternabot_sameState_MS2_Trp_B_26]	85.3 nM
UGGUACAUGAGGAUCACCCAUGUUCCAGAUACCAGUGUCCCGCUGCACCCUUGGCAGCUGGUGGUACAUGAGGAUCACCCAUGUG [Exclusion Theophylline A GF11]	56.4 nM
AGCCACUCGAGUGAUCCUCACGAGUGGCUACGAGGACCGGUACGGCCGCCACUCGAAUUAACAUGAGGAUCACCCAUGUAAUAAU [Brourdmod03]	270 nM
AAAAUCCUACCUGAGGAUCACCCGGGUGAAGGAGCGCCCGAAAGGGCAGGUAGGUCGCACCUGAGGAUCACCCUGGUAAACCUAA [ArgEX 23 #DoubleMS2 #OpenEnded]	234 nM
AAAAUAAUGGCGGCCGCCACUAACUCAUAUACAUCAUGUACAUGAGGAUCACCCAUGUAGGUGUAUAGGACCGGGCCAUAAUUAA [39MS split4]	18.8 nM
AGAUUCGACACGGCCGCCACUUGUGGUGGAUUAUCCUAUGUCGAACAUGAGGAUCACCCAUGUACAAGGACCGGGUGUUGAGUCU [XTryp B #21]	447 nM
GCUAGCCGAAAGGCUAGCAGCGCUACAGAAGGAGCGUGCGAAAGCACAGGUAGGUCGCUGAACAUGAGCAUCAGCCAUGUUGCGC [SSAA - Alter Amptam #2 V2+NP]	18.6 nM

same assay, conditions: Eterna round: R107; input ligand: tryptophan 2.4 mM

Sequence	apparent KD of MS2 coat protein
AAAAGAGGUGGAAGGAGCGGGAGACAUGAGGAUCACCCAUGUGAAGUUACGAAAGGUUCAGCCCAGGUAGGUCGCCAUGUCGAAA [eefemullin]	33.7 nM
ACAUGAAGAACAGCGGUGGGCGCGCUCGAUACCAGUAUUUUAACCUACCCUUGGCAGCGACAUGAGGAUCACCCAUGUGAGAUGA [XTheo A #7]	16.6 nM
GUAUGGAAACAUACUAGGGUAUCAUGAGAUACCAGUACAGAAAUGUACCCUUGGCAGCUCUAGCAUACAUGAGGAUCACCCAUGU [Ex Theophylline A 6]	12 nM
AAUAAGCAGCUGCCUUCCUCAUGAGCAGAUACCAGCUAGGAAACUAGCCCUUGGCAGCUGCAACAUGAGGAUCACCCAUGUAAUA [(T)'-(M)'-(T1)-(T2)-(M1)-(M2)_Design4]	43.7 nM
UCUUACUUGGUAGAUACCAGCGUGUUAUCUUUCUUUUGACAUGAGGAUCACCCAUGUAUAUGCCCUUGGCAGCUGCGUAGUGUGU [#03 Same State - Theophylline B]	27.4 nM
AGAGUCAGACAAAAGUCUGGCUCAGCCGAAGGAGCGUCCGAAAGGACAGGUAGGUCGCGGUUACCUGAGGAUCACCCGGGUUCCU [ArgAS 25 #OpenEnded #AlternativeMS2]	184 nM
AGUCUUAAAGGAAGGAGCGCAGUCAUAACAUGAGGAUCACCCAUGUCGAUGUGAGGGUCAUUGCAGGUAGGUCGCCUUACUAAGA [Same State - Arginine B (Freestyle 5)]	40.6 nM
UUGUUGUACGGAAGGAGCGUGUAAGAUUAAGAACAUGAGGAUCACCCAUGUUUUAAGGGAACACAGGUAGGUCGCCGUGUGGUGG [11.Q]	16.2 nM
ACAUUUAACUGAAGGAGCGUGAUAUACAUGAGGAUCACCCAUGUGUCUUUCAUGAAUAAUUCACAGGUAGGUCGCAGACUAAUGA [JR_ExcArginiB_Sub008]	37.6 nM
AGUAGCUGCCGAAGGAGCGCCGUGUUCCUACAUGAGGAUCACCCAUGUAGCGUUGGGUUACGGCAGGUAGGUCGCGGCGGAUAGG [Same State - Arginine B / B]	119 nM
GCUAGUGGCAGAAGGAGCGACAUUAAAAGUGGUCGAUACAUGAGGAUCACCCAUGUACUAUGUCAGGUAGGUCGCUGCCACUAGC [EAB NP+V+V2 #4 +-Same Structure]	30.7 nM
UCACGGCACUGAAGGAGCGAGUUGACAAACAUGAGGAUCACCCAUGUUAUGGGUUGUUAAUCUCAGGUAGGUCGCAGUUGUCGUG [Same State Arginine B GF 21]	388 nM
AAAGAACAUGAGGAUCACCCAUGUACCGAAGGAGCGGCGAAGAAGCCAGGUAGGUCGCGGAACAUGAAGCGAUUAAGAAUUAAUU	20.4 nM
UCUUACUUGGUAGAUACCAGCGUGUUAUCUUUCUUUUGACAUGAGGAUCACCCAUGUAUAUGCCCUUGGCAGCUGCAUAGUGUGU [#02 Same State - Theophylline B]	30.1 nM
AACAUGAGGAUCACCCAUGUCCCUCCCUCCCGAGGACCGGUACGGCCGCCACUCGCCCUCCCUCCCUAAGAAAGAAAGAAGAAGA [Same State - Trypopjan A]	32.1 nM
AAUAAUAACAUGGGUGCACGAGUGGCAUAACGAGGACCGGUACGGCCGCCACUCGAACAUGAGGAUCACCCAUGUAGCCACUCGA [M'-T'-T-MS2-T'' - Design 4]	20.5 nM
GACCUUAUCUGAAGGAGCGAGGUAAAUAGGGAUAGGAACAUGAGGAUCACCCAUGUGCGGCCUCAGGUAGGUCGCAGAUGAGAUU [Exclusion Arginine B GF28]	113 nM
GCUGUUGCGGUGAGGUAUCCGGCUGUGGAAGGAGCGCGGAAGGCCGCAGGUAGGUCGCCACAUGAGGAUCACCCAUGUCGAUAUA [Aninati]	16.8 nM
GUGGAGACCUCGGCCGCCACUCUCCAUGAGGAUCUCCCAUGUAACAUGAGGAUCACCCAUGUGCUGAGGACCGGGAGGUCCUGAA [Same State Tryptophan B GF 19]	9.55 nM
UUUUUCGCGUUUGAUACCAGCAGAGUUGUUCUGGUCUGGUACAUGAGGAUCACCCAUGUCUGCCCUUGGCAGCAAACGGGAGAAG [XTheo #30]	14.8 nM
UCCUCAUGGCAUGAUACCAGACCUAACAUGAGGAUCACCCAUGUAUCAGGCAAUUGUUACGUCCCUUGGCAGCAUGUAUGCCGAC [Theo B SS t4]	60.8 nM
GGUUAACAUGAGGAUCACCCAUGUCUUGAUACCAGUCGUUAUCUUGACCCUUGGCAGCAAGAUGACCGUUAGCAGCCGUCUUCUC [theeternabot_sameState_MS2_Theo_A_45]	13.2 nM
AAUAAUAAGGCGGCCGCCACUAAACAUGAGGAUCACCCAUGUCUCGAGCGCUUGCAUUUGGGAAGUAGGACCGGGCCAAUAAUAA [Exclusion - Tryptophan B (Freestyle 4)]	19.4 nM
UGGUACAUGAGGAUCACCCAUGUUCCAGAUACCAGUGUCCCGCUGCACCCUUGGCAGCUGGUGGUACAUGAGGAUCACCCAUGUG [Exclusion Theophylline A GF11]	39 nM
AAAAUCCUACCUGAGGAUCACCCGGGUGAAGGAGCGCCCGAAAGGGCAGGUAGGUCGCACCUGAGGAUCACCCUGGUAAACCUAA [ArgEX 23 #DoubleMS2 #OpenEnded]	154 nM
GCUAGCCGAAAGGCUAGCAGCGCUACAGAAGGAGCGUGCGAAAGCACAGGUAGGUCGCUGAACAUGAGCAUCAGCCAUGUUGCGC [SSAA - Alter Amptam #2 V2+NP]	11.7 nM
ACCUCAAUGGAUGAUACCAGCUCAAGGACGAACAUGAGGAUCACCCAUGUGACGUGGUGUAGCCCUUGGCAGCAUACUGACACCU [theeternabot_sameState_MS2_Theo_B_24]	39.1 nM
